Laboratory results: US20260265385A1 (ANAPTYSBIO, published 2026)
Changes are numbered by the printed parent chain. Values belong to the binder of their own block, whether it stands above or below them.

Legend:
[1] = biological target: T1, recombinant human IL-2Rβ (extracellular domain, Ala1-Thr215) (human, UniProt P14784 27-240); assay: SPR, antibody captured on Protein A chip
T1 construct: extracellular domain; Analyte in SPR; Ala1-Thr215 is counted on the mature protein; also called human LL-2Rβ; Human IL-2RB
T1 sequence (looked up): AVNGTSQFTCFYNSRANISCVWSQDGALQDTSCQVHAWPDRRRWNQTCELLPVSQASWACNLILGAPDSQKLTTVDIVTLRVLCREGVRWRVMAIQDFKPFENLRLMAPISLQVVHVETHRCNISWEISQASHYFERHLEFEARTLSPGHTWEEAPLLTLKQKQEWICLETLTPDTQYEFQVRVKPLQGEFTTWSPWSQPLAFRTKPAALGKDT
Experimental: (§1) Surface plasmon resonance (SPR) was used to determine the binding affinities. The M6-1625 and M10-1275 antibodies were captured onto a Cytiva Protein A Chip for 60 seconds at 0.5 μg/mL for 60 seconds. The antibodies were exposed to recombinant human LL-2Rβ or cynomolgus LL-2Rβ (corresponding to residues Ala1-Thr215 of the extracellular domains excluding the signal peptide) at typical concentrations ranging from 0.4 nM to 11 nM with typical 300 second associations and 1200 second dissociations using a BiacoreS200 instrument. Sensorgrams were fit globally using a 1:1 binding model in the Biacore T200 Evaluation Software to calculate on- and off-rates and KD values.

[2] = biological target: T2, recombinant cynomolgus IL-2Rβ (extracellular domain, Ala1-Thr215) (cynomolgus, UniProt Q38J85 27-240); assay: SPR, antibody captured on Protein A chip
T2 construct: extracellular domain; Analyte in SPR; also called cynomolgus LL-2Rβ; Cyno IL-2RB
T2 sequence (looked up): T1 sequence (looked up) with Q7R, A66T, T74A, L83M, V92M, E127K, L158M
Experimental: as §1

Kd [1]: 0.074 nM
Kd [2]: 0.014 nM
B1: APE14970 (antibody, V domains shown)
VH: EVQLVQSGAEVKKPGATVKISCKVSGFNFKDSLMHWVQQAPGKGLEWMGWIDSENGETEYAPGFQDRVTITADTSTDTAYMELSSLRSEDTAVYYCARGGPWFLSYWGQGTTVTVSS
VL: EIVMTQSPATLSVSPGERATLSCRASQIISNNLHWYQQKPGQAPRLLIIYGLQSISGIPARFSGSRSGTEFTLTISSLQSEDFAVYFCQQSNNWPWTFGQGTKLEIKR
notes: M10-1275 series

Kd [1]: 0.278 nM
Kd [2]: 0.026 nM
B2: APE14971 (antibody, V domains shown)
VH: B1 VH
VL: B1 VL with I49Y, R66G, F87Y
notes: M10-1275 series

Kd [1]: 0.19 nM
Kd [2]: 0.0222 nM
B3: APE15034 (antibody, V domains shown)
VH: B1 VH with N55T
VL: B1 VL
notes: M10-1275 series

Kd [1]: 0.106 nM
Kd [2]: 0.0128 nM
B4: APE15033 (antibody, V domains shown)
VH: B1 VH with N55Q
VL: B1 VL
notes: M10-1275 series

Kd [1]: 0.0178 nM
Kd [2]: 0.00599 nM
B5: APE15276 (antibody, V domains shown)
VH: B1 VH with D31E, M34I, S53N, N55A, G99S
VL: B1 VL with W94F
notes: M10-1275 series

Kd [1]: 0.0184 nM
Kd [2]: 0.00509 nM
B6: APE15173 (antibody, V domains shown)
VH: B1 VH with D31Y, M34I, S53N, N55A
VL: B1 VL with W94F
notes: M10-1275 series

Kd [1]: 0.144 nM
Kd [2]: 0.024 nM
B7: APE15057 (antibody, V domains shown)
VH: B1 VH
VL: B1 VL with I49Y, F87Y
notes: M10-1275 series

Kd [1]: 0.045 nM
Kd [2]: 0.00655 nM
B8: APE15167 (antibody, V domains shown)
VH: B1 VH with D31E, S53V, N55A
VL: B1 VL with F87Y
notes: M10-1275 series

Kd [1]: 0.122 nM
Kd [2]: 0.0198 nM
B9: APE15056 (antibody, V domains shown)
VH: B1 VH
VL: B1 VL with W94F
notes: M10-1275 series

Kd [1]: 0.324 nM
Kd [2]: 0.0379 nM
B10: APE15168 (antibody, V domains shown)
VH: B1 VH with D31E, M34I, S53N, N55A
VL: B1 VL with W94F, W96Y
notes: M10-1275 series

Kd [1]: 0.108 nM
Kd [2]: 0.0189 nM
B11: APE15031 (antibody, V domains shown)
VH: B1 VH with N55H
VL: B1 VL
notes: M10-1275 series

Kd [1]: 0.0738 nM
Kd [2]: 0.0124 nM
B12: APE15032 (antibody, V domains shown)
VH: B1 VH with N55A
VL: B1 VL
notes: M10-1275 series

Kd [1]: 0.116 nM
Kd [2]: 0.0271 nM
B13: APE15172 (antibody, V domains shown)
VH: B1 VH with D31Y, M34I, S53N, N55A
VL: B1 VL with W96Y
notes: M10-1275 series

Kd [1]: 0.0296 nM
Kd [2]: 0.0108 nM
B14: APE15145 (antibody, V domains shown)
VH: B1 VH with D31L, S53N, N55A
VL: B1 VL with F87Y
notes: M10-1275 series

Kd [1]: 0.187 nM
Kd [2]: 0.018 nM
B15: APE14969 (antibody, V domains shown)
VH: B1 VH
VL: B1 VL with R66G
notes: M10-1275 series

Kd [1]: 0.276 nM
Kd [2]: 0.0522 nM
B16: APE15171 (antibody, V domains shown)
VH: B1 VH with D31Y, M34I, S53N, N55A
VL: B1 VL with W94F, W96Y
notes: M10-1275 series

Kd [1]: 0.0282 nM
Kd [2]: 0.0105 nM
B17: APE15135 (antibody, V domains shown)
VH: B1 VH with S53N
VL: B1 VL with F87Y
notes: M10-1275 series

Kd [1]: 0.0352 nM
Kd [2]: 0.00923 nM
B18: APE15139 (antibody, V domains shown)
VH: B1 VH with D31E, M34I, S53V, N55A
VL: B1 VL with F87Y
notes: M10-1275 series

Kd [1]: 0.369 nM
Kd [2]: 0.0838 nM
B19: APE15055 (antibody, V domains shown)
VH: B1 VH
VL: B1 VL with W94Y
notes: M10-1275 series

Kd [1]: 0.0518 nM
Kd [2]: 0.0174 nM
B20: APE15137 (antibody, V domains shown)
VH: B1 VH with D31Y
VL: B1 VL with F87Y
notes: M10-1275 series

Kd [1]: 0.022 nM
Kd [2]: 0.0103 nM
B21: APE15141 (antibody, V domains shown)
VH: B1 VH with D31E, S53N, N55A
VL: B1 VL with F87Y
notes: M10-1275 series

Kd [1]: 0.0436 nM
Kd [2]: 0.0163 nM
B22: APE15138 (antibody, V domains shown)
VH: B1 VH with D31L
VL: B1 VL with F87Y
notes: M10-1275 series

Kd [1]: 0.429 nM
Kd [2]: 0.108 nM
B23: APE15054 (antibody, V domains shown)
VH: B1 VH
VL: B1 VL with W96F
notes: M10-1275 series

Kd [1]: 0.0297 nM
Kd [2]: 0.0116 nM
B24: APE15144 (antibody, V domains shown)
VH: B1 VH with D31L, M34I, S53N, N55A
VL: B1 VL with F87Y
notes: M10-1275 series

Kd [1]: 0.0697 nM
Kd [2]: 0.0159 nM
B25: APE15059 (antibody, V domains shown)
VH: B1 VH
VL: B1 VL with F87Y
notes: M10-1275 series

Kd [1]: 0.154 nM
Kd [2]: 0.0223 nM
B26: APE15058 (antibody, V domains shown)
VH: B1 VH
VL: B1 VL with I49Y
notes: M10-1275 series

Kd [1]: 0.0481 nM
Kd [2]: 0.0114 nM
B27: APE15136 (antibody, V domains shown)
VH: B1 VH with D31E
VL: B1 VL with F87Y
notes: M10-1275 series

Kd [1]: 0.165 nM
Kd [2]: 0.0195 nM
B28: APE15036 (antibody, V domains shown)
VH: B1 VH with M34V
VL: B1 VL
notes: M10-1275 series

Kd [1]: 0.0915 nM
Kd [2]: 0.0399 nM
B29: APE15053 (antibody, V domains shown)
VH: B1 VH
VL: B1 VL with W96Y
notes: M10-1275 series

Kd [1]: 0.124 nM
Kd [2]: 0.0171 nM
B30: APE15037 (antibody, V domains shown)
VH: B1 VH with M34L
VL: B1 VL
notes: M10-1275 series

Kd [1]: 0.147 nM
Kd [2]: 0.0194 nM
B31: APE15035 (antibody, V domains shown)
VH: B1 VH with N55S
VL: B1 VL
notes: M10-1275 series

Kd [1]: 0.12 nM
Kd [2]: 0.0185 nM
B32: APE15038 (antibody, V domains shown)
VH: B1 VH with M34I
VL: B1 VL
notes: M10-1275 series

Kd [1]: 0.0251 nM
Kd [2]: 0.00972 nM
B33: APE15143 (antibody, V domains shown)
VH: B1 VH with D31Y, S53N, N55A
VL: B1 VL with F87Y
notes: M10-1275 series

Kd [1]: 0.0107 nM
Kd [2]: 0.00415 nM
B34: APE15446 (antibody)
heavy: not shown
light: EIVMTQSPATLSVSPGERATLSCRASQIISNNLHWYQQKPGQAPRLLIIYGLQSISGIPARFSGSRSGTEFTLTISSLQSEDFAVYFCQQSNNFPWTFGQGTKLEIKRTVAAPSVFIFPPSDEQLKSGTASVVCLLNNFYPREAKVQWKVDNALQSGNSQESVTEQDSKDSTYSLSSTLTLSKADYEKHKVYACEVTHQGLSSPVTKSFNRGEC
notes: M10-1275 series

Kd [1]: 0.0567 nM
Kd [2]: 0.0765 nM
B35: APE15428 (antibody)
heavy: not shown
light: DIQMTQSPSSLSASVGDRVTITCKASQNVGTDVAWYQQKPGKAPKSLIYSASYRYSGVPSRFSGSGSGTDFTLTISSLQPEDFATYFCHQYESYPFTFGQGTKLEIKRTVAAPSVFIFPPSDEQLKSGTASVVCLLNNFYPREAKVQWKVDNALQSGNSQESVTEQDSKDSTYSLSSTLTLSKADYEKHKVYACEVTHQGLSSPVTKSFNRGEC
notes: M6-p1625 series
